Laboratory results: patent US20100322948A1, “Bone morphogenetic protein (BMP)-binding domains of proteins of the repulsive guidance molecule (RGM) protein family and functional fragments thereof, and use of same” (ABBOTT GMBH & CO. KG, priority 2007, published 2010)
Entries after “also recorded” stand apart in the source; their conditions may differ.

Key:
SH-SY5Y cells = experiment: Neurite growth assay using SH-SY5Y cells (test method 1); type: cell-based, human; conditions: FIG. 7A
Text: Test Method 1: Illustration of the Effect of RGM Peptides in the Neurite Growth Assay, Using SH-SY5Y Cells
SH-SY5Y cells are human neuroblastoma cells. Blastomas are embryonic tumors which originate during tissue and organ formation. The origin of the blastoma cells is frequently unknown, since in early embryonic states the differentiation of many cells is still premature; i.e., the blastoma cells are a heterogeneous cell population. The cells of a neuroblastoma, referred to as neuroblasts, originate from the neural crest (structure of the embryonic state) from the autonomous nerve tissue, and are practically arrested in an immature stage. The cells in the present case originated from a clonal subculture of the neuroepitheliomal cell line SK-N-SH which were isolated in 1970 in a bone marrow biopsy of a child with metastases of the neuroblastomas.
Culture Medium for SH-SY5Y Cells (ECACC No. 94030304)
The medium was sterile-filtered using a Nunc 500-mL filter, and was stored in a refrigerator at 4° C. until used. Before use, the medium was heated to 37° C. in a water bath.
SH-SY5Y cells are epithelial, neuron-like cells which slowly adherently grow in a monolayer and never attain a confluence of 100% (maximum 80%). The cell culture was split 1:3 two times per week. Isolation of the cells requires incubation with trypsin for 1-3 minutes in an incubator.
Since this is a population of still immature precursor cells, it is possible to differentiate the cells using retinoic acid, so that a certain percentage of the cells acquire neurite-like extensions. For this purpose the culture was incubated in the medium with 10 μM retinoic acid directly in the culture dish or flask, depending on the test, for 3 days.
Microtiter plates (96-well) (containing collagen I-coated plates) were additionally coated with the hRGM A fragments. After washing two times with PBS the cells were seeded. […] In the quantitative analysis the SH-SY5Y cells grown on hRGM A fragments were compared to SH-SY5Y grown on collagen I alone. The neurite length of the cells was automatically measured and used for the analysis. […]

BMP-2 = target: T1, BMP-2 (Homo sapiens, UniProt P12643); experiment: In vitro interaction test, variant B: immobilized RGMA-Fc fusion proteins, detection of BMP-2 binding; conditions: Working Example 2, FIG. 4, anti-BMP-2 biotin antibodies
T1 construct: purchased R&D Systems 355-BM; host or cells: CHO cells (said of #355-BM in the BRE-Luc section)
T1 sequence (P12643 283-396): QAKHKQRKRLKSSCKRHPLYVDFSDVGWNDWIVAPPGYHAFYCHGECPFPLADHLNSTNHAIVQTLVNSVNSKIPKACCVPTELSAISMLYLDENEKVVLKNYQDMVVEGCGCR
Description: Test Method 4: In Vitro Interaction Test for Determining the Interaction between RGMA and BMP-2 and -4
The interaction tests were carried out as described below:
Variant B: Immobilization of Various RGMA-Fc Fusion Proteins and Detection of the Binding of the BMP-2/ or -4 Protein
Immunoplate Cert. MaxiSorp F96 (Nunc, 439454)
RGMA-Fc fragments • Volume used: 2.5 μg/mL in Na2CO3; addition: 50 μL per well • 1 hour at 37° C. in damp chamber
3. Washing step: • Wash 3× with PBS/0.02% Tween 20
4. Blocking: • 3% BSA in PBS/0.02% Tween, 1 hour at 37° C. in damp chamber • Addition : 200 μL per well, incubation: 1 hour at 37° C. in damp chamber
Recombinant human BMP-2, Catalog No.: 355-BM, Company: R&D Systems; or
Recombinant human RGM A, R&D Systems; Prod. #2495-RM,
recombinant human BMP-4, Catalog No.: 314-BM, Company: R&D Systems;
Concentration in each case: 10 μg/mL
Dilution steps: in each case 1:2 with PBS/0.02% Tween 20
6. Washing step: • Wash 3× with PBS/0.02% Tween 20
Anti-human BMP-4 biotin antibody; Catalog No.: BAM7572, 1:200 in 1% BSA-PBS-T
8. Washing step: • Wash 3× with PBS/0.02% Tween 20
10. Washing step: • Wash 3× with PBS/0.02% Tween 20 […]
The test was conducted according to test method 4, variant B above, with immobilization of the fusion proteins (1 mg/mL). The binding of BMP-4 and -2 was detected using anti-BMP-4 and anti-BMP-2 biotin antibodies, respectively.

- binding of BMP-2 (BMP-2): more significant binding
B1: fragment #786: Fc fusion protein of human RGM A amino acids 47-168 (protein)
chain: PCKILKCNSEFWSATSGSHAPASDDTPEFCAALRSYALCTRRTARTCRGDLAYHSAVHGIEDLMSQHNCSKDGPTSQPRLRTLPPAGDSQERSDSPEICHYEKSFHKHSATPNYTHCGLFGD
modifications: left off: small tags and cut ends; a dimerising Fc or GST
- inhibition of neurite growth (SH-SY5Y cells): inhibit the neurite growth
- inhibitory activity in neurite growth test compared with 316-386-Fc (SH-SY5Y cells; listed as 47-168-Fc): much stronger effect; also recorded: significantly higher activity
